This data set relates to ATP. Description: switch fluorescence ratio, 500 uM ATP over buffer (Cy3 cluster intensity, sum of 5 cycles each) (fold (ratio)); higher = stronger signal-on switching upon ATP binding; sequences stand for … in TCGTCGGCAGCGTCAGATGTGTATAAGAGACAGTTTTTTTTTTTTTTTTTTTTTTTTT…TC. To be noted: aptamer strand: ATP DNA aptamer (quencher-CACCTGGGGGAGTATTGCGGAGGAAGG + anchor), 100 nM annealed; ATP concentration: 500 uM. The gist of the method: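 Switching-strand clusters labelled with Cy3 on a modified Illumina MiSeq flow-cell were annealed to 100 nM quencher-labelled ATP aptamer, imaged in selection buffer, and re-imaged after 15 min with 500 uM ATP at 22 °C. This was done over five cycles with NaOH stripping and re-annealing in between. The fluorescence ratio is summed target-cycle over summed buffer-cycle Cy3 intensity per cluster, averaged per switch-domain sequence, excluding clusters outside 100-1000 RFU.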

± gives the standard deviation of the averaged measurements.
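Also: ATP exposure 15 min at 22 °C before imaging.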

For TCGGTTACAT, the switch fluorescence ratio worked out at 0.983 ± 0.016.

With TCGGTTCATT, the switch fluorescence ratio is 0.9962 ± 0.004.

In the case of TCGGTTGTGT, the switch fluorescence ratio was 1.08 ± 0.078.

TCGGTTGTTG: the switch fluorescence ratio was determined as 1.01 ± 0.013.

Take TCGGTTTAAC: the switch fluorescence ratio was found to be 1.04 ± 0.038.

On to TCGGTTTGCA, for which the switch fluorescence ratio amounted to 0.997 ± 0.018.

For TCGGTTTGCG, the switch fluorescence ratio amounted to 1.01 ± 0.022.

Consider TCGTAACTTA, for which the switch fluorescence ratio was 1.03 ± 0.011.

In the case of TCGTAATGAG, the switch fluorescence ratio amounted to 1.019 ± 0.0034.

Regarding TCGTAATTGT, the switch fluorescence ratio was 1.02 ± 0.024.

Consider TCGTACATGA, for which the switch fluorescence ratio came to 1.013 ± 0.00015.

On to TCGTACGAAG, for which the switch fluorescence ratio turned out to be 1 ± 0.032.

TCGTAGAAGG: the switch fluorescence ratio is 0.991 ± 0.048.

As for TCGTAGAGTG, the switch fluorescence ratio stood at 0.954 ± 0.026.

For the sequence TCGTAGGGG, the switch fluorescence ratio came out at 0.961 ± 0.018.

With TCGTATACGG, the switch fluorescence ratio came out at 0.963 ± 0.044.

For TCGTATTAAG, the switch fluorescence ratio is 0.969 ± 0.046.

In the case of TCGTATTACG, the switch fluorescence ratio was found to be 1.03 ± 0.094.

For TCGTCAAATT, the switch fluorescence ratio came out at 0.991 ± 0.067.

As for TCGTCAACGG, the switch fluorescence ratio came to 1.01 ± 0.023.

On to TCGTCCGAAG, for which the switch fluorescence ratio amounted to 1.45 ± 0.04.

With TCGTCTAAGG, the switch fluorescence ratio was 0.995 ± 0.014.

As for TCGTCTAATG, the switch fluorescence ratio was 0.9784 ± 0.0016.

With TCGTGAGGGG, the switch fluorescence ratio is 1.02 ± 0.047.

As to TCGTGATTGG, the switch fluorescence ratio turned out to be 1.007 ± 0.0097.

As for TCGTGCGGTT, the switch fluorescence ratio was 1.01 ± 0.032.

For the sequence TCGTGGGCGA, the switch fluorescence ratio turned out to be 0.993 ± 0.011.

Take TCGTGTATAT: the switch fluorescence ratio is 1 ± 0.027.

Turning to TCGTGTATCT, the switch fluorescence ratio stood at 0.946 ± 0.039.

TCGTGTATGA: the switch fluorescence ratio was determined as 1.036 ± 0.0059.

As for TCGTGTGACT, the switch fluorescence ratio came to 0.98961 ± 8.7e-05.

Regarding TCGTGTGATG, the switch fluorescence ratio is 0.9686 ± 0.0049.

Regarding TCGTGTTCGA, the switch fluorescence ratio amounted to 1.001 ± 0.0094.

Take TCGTTAATCA: the switch fluorescence ratio was 0.9835 ± 0.0088.

As for TCGTTAGATG, the switch fluorescence ratio stood at 0.989 ± 0.023.

Regarding TCGTTAGGTG, the switch fluorescence ratio was 1.03 ± 0.025.

Take TCGTTATGT: the switch fluorescence ratio was 0.97732 ± 9.1e-05.

With TCGTTATGTC, the switch fluorescence ratio stood at 1 ± 0.032.

In the case of TCGTTCAATC, the switch fluorescence ratio was 1.314 ± 0.01.

Turning to TCGTTGGGGG, the switch fluorescence ratio turned out to be 0.995 ± 0.013.

For the sequence TCGTTGTTAT, the switch fluorescence ratio stood at 1 ± 0.023.

Turning to TCGTTTAATT, the switch fluorescence ratio stood at 0.994 ± 0.04.

For the sequence TCGTTTTTGA, the switch fluorescence ratio worked out at 0.985 ± 0.039.

As for TCGTTTTTGG, the switch fluorescence ratio was 1 ± 0.041.

With TCGTTTTTTA, the switch fluorescence ratio is 1.22 ± 0.45.

TCGTTTTTTG: the switch fluorescence ratio was found to be 0.984 ± 0.016.

As to TCTAAAGCTG, the switch fluorescence ratio is 1 ± 0.023.

As for TCTAAAGGAT, the switch fluorescence ratio amounted to 1.006 ± 0.004.

TCTAAATAGC: the switch fluorescence ratio was determined as 1.05 ± 0.038.

On to TCTAAATCG, for which the switch fluorescence ratio turned out to be 1.04 ± 0.055.

Take TCTAAATTTA: the switch fluorescence ratio is 1.01 ± 0.06.

On to TCTAAGGGTG, for which the switch fluorescence ratio was 1.014 ± 0.01.

For the sequence TCTAAGGTTA, the switch fluorescence ratio amounted to 1 ± 0.02.

Take TCTAATACGG: the switch fluorescence ratio amounted to 1.04 ± 0.02.

As for TCTAATCCGG, the switch fluorescence ratio is 1.015 ± 0.0051.

For the sequence TCTAATCGGA, the switch fluorescence ratio was found to be 0.975 ± 0.04.

On to TCTAATGGAA, for which the switch fluorescence ratio was found to be 1.01 ± 0.018.

For the sequence TCTACATGAT, the switch fluorescence ratio worked out at 1.05 ± 0.013.

On to TCTACCTACA, for which the switch fluorescence ratio turned out to be 1.33 ± 0.051.

In the case of TCTACGGGGT, the switch fluorescence ratio came to 1.46 ± 0.55.

With TCTAGAATGG, the switch fluorescence ratio is 0.982 ± 0.033.

As to TCTAGCAACG, the switch fluorescence ratio worked out at 1.01 ± 0.032.

TCTAGCGTAC: the switch fluorescence ratio came out at 2.64 ± 0.44.

For TCTAGGAAAG, the switch fluorescence ratio is 0.991 ± 0.034.

Turning to TCTAGGAGGT, the switch fluorescence ratio was determined as 0.987 ± 0.028.

On to TCTAGGGGTG, for which the switch fluorescence ratio turned out to be 1.03 ± 0.025.

As for TCTAGTCGAA, the switch fluorescence ratio stood at 1.02 ± 0.036.

TCTAGTGGTT: the switch fluorescence ratio turned out to be 1 ± 0.019.

Turning to TCTAGTGTCG, the switch fluorescence ratio is 1.03 ± 0.11.

On to TCTATAGTTC, for which the switch fluorescence ratio came to 1.01 ± 0.034.

On to TCTATCGTTA, for which the switch fluorescence ratio is 1.04 ± 0.03.

As to TCTATGGTCT, the switch fluorescence ratio worked out at 0.99 ± 0.011.

Regarding TCTATTCGGG, the switch fluorescence ratio amounted to 0.9484 ± 0.0029.

In the case of TCTATTGCTG, the switch fluorescence ratio was determined as 0.995 ± 0.02.

Regarding TCTATTTTTT, the switch fluorescence ratio worked out at 1.01 ± 0.014.

Consider TCTCAATGCG, for which the switch fluorescence ratio stood at 1.02 ± 0.065.

With TCTCATGTAG, the switch fluorescence ratio was determined as 1.018 ± 0.009.

With TCTCCATTGT, the switch fluorescence ratio turned out to be 1.04 ± 0.046.

As to TCTCGGGGCT, the switch fluorescence ratio turned out to be 0.97 ± 0.011.

On to TCTCGGTGAG, for which the switch fluorescence ratio was determined as 0.99 ± 0.051.

Turning to TCTCTAGCTG, the switch fluorescence ratio came to 1.05 ± 0.041.

Turning to TCTCTGGTTA, the switch fluorescence ratio worked out at 1.01 ± 0.018.

Turning to TCTCTTTAAT, the switch fluorescence ratio was determined as 0.997 ± 0.021.

On to TCTCTTTGTG, for which the switch fluorescence ratio came out at 1.02 ± 0.024.

In the case of TCTGACGTAC, the switch fluorescence ratio came to 2.57 ± 0.19.

For the sequence TCTGAGACGC, the switch fluorescence ratio stood at 1.05 ± 0.019.

In the case of TCTGAGCAAG, the switch fluorescence ratio is 2.47 ± 0.25.

In the case of TCTGAGCGGA, the switch fluorescence ratio stood at 1.14 ± 0.13.

As for TCTGAGGGGG, the switch fluorescence ratio was 1 ± 0.027.

Consider TCTGAGTGCG, for which the switch fluorescence ratio came to 1.02 ± 0.02.

TCTGAGTTTG: the switch fluorescence ratio was determined as 0.993 ± 0.038.

Regarding TCTGATGGCT, the switch fluorescence ratio was 1.04 ± 0.05.

As to TCTGCGGGGA, the switch fluorescence ratio is 1.14 ± 0.21.

TCTGCTTCAG: the switch fluorescence ratio amounted to 0.973 ± 0.022.

TCTGGATCA: the switch fluorescence ratio is 1.0079 ± 0.00014.

Regarding TCTGGGAAGA, the switch fluorescence ratio stood at 1.02 ± 0.044.

TCTGGGAAGT: the switch fluorescence ratio turned out to be 0.986 ± 0.011.

For TCTGGGCCGG, the switch fluorescence ratio is 0.989 ± 0.034.

With TCTGGGGCGC, the switch fluorescence ratio came out at 0.984 ± 0.015.

As for TCTGGTAGCG, the switch fluorescence ratio came to 1.02 ± 0.021.

TCTGGTATGA: the switch fluorescence ratio was determined as 1.01 ± 0.015.

In the case of TCTGGTGTTT, the switch fluorescence ratio is 0.986 ± 0.024.

Regarding TCTGGTTGCG, the switch fluorescence ratio came out at 1 ± 0.037.

As to TCTGGTTGGT, the switch fluorescence ratio turned out to be 1.01 ± 0.051.

Consider TCTGTAAGGC, for which the switch fluorescence ratio amounted to 1.39 ± 0.066.

Consider TCTGTCCTTC, for which the switch fluorescence ratio was determined as 1.06 ± 0.054.

TCTGTCGGGC: the switch fluorescence ratio stood at 0.994 ± 0.054.

TCTGTTATCA: the switch fluorescence ratio stood at 1 ± 0.029.

Consider TCTGTTGGGC, for which the switch fluorescence ratio amounted to 0.995 ± 0.025.

For the sequence TCTGTTGTG, the switch fluorescence ratio was 1.03 ± 0.029.

As to TCTGTTTTGG, the switch fluorescence ratio worked out at 1 ± 0.038.

On to TCTTAAAGCA, for which the switch fluorescence ratio came out at 1.02 ± 0.06.

Regarding TCTTAAGAGT, the switch fluorescence ratio amounted to 0.9987 ± 0.0022.

Take TCTTACGATC: the switch fluorescence ratio was found to be 1 ± 0.021.

In the case of TCTTACGGAC, the switch fluorescence ratio was 1.31 ± 0.017.

With TCTTAGAGGT, the switch fluorescence ratio was 0.983 ± 0.026.

Take TCTTAGCCCT: the switch fluorescence ratio worked out at 1.01 ± 0.025.

For TCTTAGGCGG, the switch fluorescence ratio was 0.977 ± 0.039.

For TCTTAGGGAT, the switch fluorescence ratio is 1 ± 0.052.

TCTTATAAGC: the switch fluorescence ratio was 0.984 ± 0.028.
